From patent publication US20210380656A1 (ACADEMISCH ZIEKENHUIS LEIDEN H O D N LUMC, published 2021) come the findings set out here.

First the molecules themselves.
T1: HA-1^H, minor histocompatibility antigen encoded by HMHA1 (Rho GTPase-activating protein 45), R139H … (human)
T1 peptide: VLHDDLLEA

B1: HA-1^H TCR M7 (TCR, V domains shown)
Valpha: GQQVMQIPQYQHVQEGEDFTTYCNSSTTLSNIQWYKQRPGGHPVFLIQLVKSGEVKKQKRLTFQFGEAKKNSSLHITATQTTDVGTYFCAGNTGGFKTIFGAGTRLFVKA
Vbeta: DTGVSQDPRHKITKRGQNVTFRCDPISEHNRLYWYRQTLGQGPEFLTYFQNEAQLEKSRLLSDRFSAERPKGSFSTLEIQRTEQGDSAMYLCASSLLGNQPQHFGDGTRLSIL
B2: Chimeric HA-1 TCR: M7 TCR alpha chain (TRAV25*01) with M2 TCR beta chain (TRBV7-9) (TCR, V domains shown)
Valpha: GQQVMQIPQYQHVQEGEDFTTYCNSSTTLSNIQWYKQRPGGHPVFLIQLVKSGEVKKQKRLTFQFGEAKKNSSLHITATQTTDVGTYFCAGNTGGFKTIFGAGTRLFVKA
Vbeta: DTGVSQNPRHKITKRGQNVTFRCDPISEHNRLYWYRQTLGQGPEFLTYFQNEAQLEKSRLLSDRFSAERPKGSFSTLEIQRTEQGDSAMYLCASLTVQNTEAFFGQGTRLTVV
B3: HA-1^H TCR M2 (TCR, V domains shown)
Valpha: GENVEQHPSTLSVQEGDSAVIKCTYSDSASNYFPWYKQELGKRPQLIIDIRSNVGEKKDQRIAVTLNKTAKHFSLHITETQPEDSAVYFCAARNSGAGSYQLTFGKGTKLSVIP
Vbeta: DTGVSQNPRHKITKRGQNVTFRCDPISEHNRLYWYRQTLGQGPEFLTYFQNEAQLEKSRLLSDRFSAERPKGSFSTLEIQRTEQGDSAMYLCASLTVQNTEAFFGQGTRLTVV
B4: HA-1-TCR of clone M7 (M7 TRBV7-9 with M7 TRAV25*01), unmodified (TCR, V domains shown)
V domain 1: GQQVMQIPQYQHVQEGEDFTTYCNSSTTLSNIQWYKQRPGGHPVFLIQLVKSGEVKKQKRLTFQFGEAKKNSSLHITATQTTDVGTYFCAGNTGGFKTIFGAGTRLFVKA
V domain 2: GVSQDPRHKITKRGQNVTFRCDPISEHNRLYWYRQTLGQGPEFLTYFQNEAQLEKSRLLSDRFSAERPKGSFSTLEIQRTEQGDSAMYLCASSLLGNQPQHFGDGTRLSILE
notes: Expressed on transduced T cells; also called HA-1^H TCR M7; HA-1-TCR WT
B5: HA-1-TCR of clone M2 (M2 TRBV7-9 with M2 TRAV13-1*02) (TCR, V domains shown)
V domain 1: GENVEQHPSTLSVQEGDSAVIKCTYSDSASNYFPWYKQELGKRPQLIIDIRSNVGEKKDQRIAVTLNKTAKHFSLHITETQPEDSAVYFCAARNSGAGSYQLTFGKGTKLSVIP
V domain 2: DTGVSQNPRHKITKRGQNVTFRCDPISEHNRLYWYRQTLGQGPEFLTYFQNEAQLEKSRLLSDRFSAERPKGSFSTLEIQRTEQGDSAMYLCASLTVQNTEAFFGQGTRLTVVE
notes: Expressed on transduced peripheral T cells; also called HA-1^H TCR M2
B6: Chimeric TCR: M2 TRBV7-9 beta chain with M7 TRAV25*01 alpha chain (TCR, V domains shown)
V domain 1: GQQVMQIPQYQHVQEGEDFTTYCNSSTTLSNIQWYKQRPGGHPVFLIQLVKSGEVKKQKRLTFQFGEAKKNSSLHITATQTTDVGTYFCAGNTGGFKTIFGAGTRLFVKA
V domain 2: DTGVSQNPRHKITKRGQNVTFRCDPISEHNRLYWYRQTLGQGPEFLTYFQNEAQLEKSRLLSDRFSAERPKGSFSTLEIQRTEQGDSAMYLCASLTVQNTEAFFGQGTRLTVVE
notes: The entries include the leader

The target in one assay is T1, HA-1^H, minor histocompatibility …. Nature of the assay: multimer staining.
In the case of B1, the binding result was “recognises”.

With B2, the binding result is “recognises”.

Take B3: the binding result is “recognises”.

The next assay addresses T2, HA-1 pMHC tetramer (human).
T2 construct: also called HA-1 tetramer; HA-1-tetramer
Nature of the assay: HA-1 pMHC tetramer staining of peripheral T cells transduced with the TCR chains, flow cytometry.
As to B4, the “MFI of HA-1 pMHC tetramer” value stood at 33.8 MFI.

On to B5, for which the “MFI of HA-1 pMHC tetramer” value came to 24.2 MFI.

With B6, the “MFI of HA-1 pMHC tetramer” value came to 32.6 MFI.
